# Measured values published in the supplement of paper PMC7877785.
# ± gives the uncertainty stated by the source.
# Assay: self-splicing fitness, log relative to wild type (ln ratio); higher = more splicing; Tetrahymena group I intron in knt gene, E. coli kanamycin selection, DiMSum; sequences stand for … in CUCUCU…GGAGGGAAAAGUUAUCAGGCAUGCACCUGGUAGCUAGUCUUUAAACCAAUAGAUUGCAUCGGUUUAAAAGGCAAGACCGUCAAAUUGCGGGAAAGGGGUCAACAGCCGUUCAGUACCAAGUCUCAGGGGAAACUUUGAGAUGGCCUUGCAAAGGGUAUGGUAAUAAGCUGACGGACAUGGUCCUAACCACGCAGCCAAGUCCUAAGUCAACAGAUCUUCUGUUGAUAUGGAUGCAGUUCACAGACUAAAUGUCGGUCGGGGAAGAUGUAUUCUUCUCAUAAGAUAUAGUCGGACCUCUCCUUAAUGGGAGCUAGCGGAUGAAGUGAUGCAACACUGGAGCCGCUGGGAACUAAUUUGUAUGCGAAAGUAUAUUGAUUAGUUUUGGAGUACUCGUGGUCG
# How it was run: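 Library with all eight P1ex-region intron nucleotides randomised, intron inside the knt kanamycin-resistance gene on pET-22b(+), in E. coli BL21(DE3). Cells grew overnight at 37°C or 30°C on LB agar with or without 25 μg/mL kanamycin (plus 100 μg/mL carbenicillin, 50 μM IPTG, 0.2% rhamnose), in six replicate transformations. Pooled colonies were amplicon-sequenced on Illumina HiSeq 2500. DiMSum fitness is the error-weighted combination of wild-type-normalised replicate fold changes, kanamycin versus none.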
Sequence,self-splicing fitness (ln) (30 °C),self-splicing fitness (ln) (37 °C)
AUUUAGCAAUAUUACGGUGU,-2.3 ± 0.095,-1.48 ± 0.11
AUUUAGCAAUAUUACGUCGC,-3.64 ± 0.26,-2.2 ± 0.21
AUUUAGCAAUAUUACGUCUU,-0.374 ± 0.12,0.156 ± 0.17
AUUUAGCAAUAUUACGUGAC,-2.58 ± 0.18,-1.49 ± 0.36
CAAAAGCAAUAUUACGACGG,0.122 ± 0.076,-0.14 ± 0.09
CAAAAGCAAUAUUACGACUC,-1.44 ± 0.11,-0.245 ± 0.13
CAAAAGCAAUAUUACGCACC,-2.48 ± 0.31,-0.0893 ± 0.26
CAAAAGCAAUAUUACGCAUA,-3.58 ± 0.17,-1.77 ± 0.12
CAAAAGCAAUAUUACGCCGA,-2.91 ± 0.23,-2.49 ± 0.25
CAAAAGCAAUAUUACGCGCA,-1.05 ± 0.1,-0.548 ± 0.1
CAAAAGCAAUAUUACGCUAC,-3.82 ± 0.26,-2.59 ± 0.25
CAAAAGCAAUAUUACGCUCG,-1.25 ± 0.12,-0.455 ± 0.12
CAAAAGCAAUAUUACGGAAU,-3.21 ± 0.21,-2.56 ± 0.17
CAAAAGCAAUAUUACGGAUC,-3.73 ± 0.22,-1.98 ± 0.16
CAAAAGCAAUAUUACGGGGG,-3.13 ± 0.18,-2.38 ± 0.15
CAAAAGCAAUAUUACGGGUC,-3.11 ± 0.094,-2.51 ± 0.12
CAAAAGCAAUAUUACGGUUC,-3.56 ± 0.22,-1.83 ± 0.18
CAAAAGCAAUAUUACGUCGC,-4.14 ± 0.28,-2.35 ± 0.25
CAAAAGCAAUAUUACGUCGG,-0.932 ± 0.073,-0.25 ± 0.1
CAAAAGCAAUAUUACGUCUU,-2.5 ± 0.082,-1.24 ± 0.08
CAAAAGCAAUAUUACGUGAC,-5 ± 0.36,-2.47 ± 0.18
CAACAGCAAUAUUACGACAU,-2.026 ± 0.012,-1.04 ± 0.032
CAACAGCAAUAUUACGAGAC,-2.57 ± 0.11,-2.22 ± 0.14
CAACAGCAAUAUUACGAGGC,-3.79 ± 0.36,-1.77 ± 0.18

Sequence,self-splicing fitness (ln) (30 °C),self-splicing fitness (ln) (37 °C)
CAACAGCAAUAUUACGAGUG,-1.59 ± 0.051,-0.292 ± 0.071
CAACAGCAAUAUUACGAGUU,-2.6 ± 0.096,-2.09 ± 0.13
CAACAGCAAUAUUACGAUUA,-0.522 ± 0.082,-0.185 ± 0.082
CAACAGCAAUAUUACGCACU,-2.34 ± 0.14,-0.357 ± 0.12
CAACAGCAAUAUUACGCAUA,-2.7 ± 0.12,-1.4 ± 0.098
CAACAGCAAUAUUACGCAUG,-2.41 ± 0.11,-1.27 ± 0.14
CAACAGCAAUAUUACGCGGG,-2.63 ± 0.14,-2.12 ± 0.14
CAACAGCAAUAUUACGGCGA,-1.5 ± 0.094,-0.709 ± 0.087
CAACAGCAAUAUUACGGGCG,-0.0253 ± 0.049,0.154 ± 0.062
CAACAGCAAUAUUACGGUGG,-2.15 ± 0.083,-0.724 ± 0.082
CAACAGCAAUAUUACGUCGG,-0.576 ± 0.052,-0.369 ± 0.065
CAACAGCAAUAUUACGUUCA,-1.06 ± 0.051,0.193 ± 0.061
CAACAGCAAUAUUACGUUCC,-2.46 ± 0.096,-2.02 ± 0.12
CAACAGCAAUAUUACGUUCG,-0.959 ± 0.051,-0.171 ± 0.065
CAAGAGCAAUAUUACGACAU,-3.534 ± 0.024,-2.85 ± 0.041
CAAGAGCAAUAUUACGACGU,-2.88 ± 0.23,–
CAAGAGCAAUAUUACGAUAC,-2.8 ± 0.34,–
CAAGAGCAAUAUUACGAUUU,-3.11 ± 0.2,-2.45 ± 0.16
CAAGAGCAAUAUUACGCAGA,-3.45 ± 0.19,-2.12 ± 0.16
CAAGAGCAAUAUUACGCGCA,-3.48 ± 0.37,-2.09 ± 0.25
CAAGAGCAAUAUUACGGCAC,-4.28 ± 0.24,-2.53 ± 0.18
CAAGAGCAAUAUUACGGCGA,-3.9 ± 0.28,-3.24 ± 0.18
CAAGAGCAAUAUUACGGCUG,-0.309 ± 0.098,-0.473 ± 0.16
CAAGAGCAAUAUUACGGGUG,-1.74 ± 0.078,-1.17 ± 0.1

Sequence,self-splicing fitness (ln) (30 °C),self-splicing fitness (ln) (37 °C)
CAAGAGCAAUAUUACGGUAA,-3.24 ± 0.23,-2.14 ± 0.21
CAAGAGCAAUAUUACGGUAU,-4.27 ± 0.22,-2.63 ± 0.21
CAAGAGCAAUAUUACGGUGC,-3.03 ± 0.31,-2.09 ± 0.35
CAAGAGCAAUAUUACGGUUC,-3.57 ± 0.24,-2.34 ± 0.25
CAAGAGCAAUAUUACGUAAA,-4.16 ± 0.29,-3.01 ± 0.26
CAAGAGCAAUAUUACGUCAC,-3.05 ± 0.21,-2.75 ± 0.23
CAAGAGCAAUAUUACGUCGA,-3.3 ± 0.21,-2.2 ± 0.24
CAAGAGCAAUAUUACGUGAC,–,-3.01 ± 0.18
CAAGAGCAAUAUUACGUGCA,-2.97 ± 0.21,-3.06 ± 0.43
CAAGAGCAAUAUUACGUUAA,-3.49 ± 0.35,-2.33 ± 0.22
CAAGAGCAAUAUUACGUUGG,-2.67 ± 0.13,-1.78 ± 0.12
CAAUAGCAAUAUUACGAAGU,-3.76 ± 0.15,-2.64 ± 0.15
CAAUAGCAAUAUUACGAGCA,-2.05 ± 0.34,-0.415 ± 0.3
CAAUAGCAAUAUUACGAGCG,-0.254 ± 0.077,0.281 ± 0.098
CAAUAGCAAUAUUACGAGUC,-4.09 ± 0.34,-2.75 ± 0.28
CAAUAGCAAUAUUACGCAAC,-3.75 ± 0.34,-1.91 ± 0.39
CAAUAGCAAUAUUACGCAAU,-3.23 ± 0.34,-2.09 ± 0.28
CAAUAGCAAUAUUACGCCCG,-0.472 ± 0.17,-0.0129 ± 0.23
CAAUAGCAAUAUUACGCGCA,-2.68 ± 0.19,-1.7 ± 0.18
CAAUAGCAAUAUUACGCGCU,-3.61 ± 0.18,-2.18 ± 0.18
CAAUAGCAAUAUUACGCGGC,-3.91 ± 0.37,–
CAAUAGCAAUAUUACGCGUA,-2.09 ± 0.18,-1.85 ± 0.23
CAAUAGCAAUAUUACGCGUU,-2.98 ± 0.09,-2.42 ± 0.1
CAAUAGCAAUAUUACGGAGC,-2.48 ± 0.22,-2.53 ± 0.45

Sequence,self-splicing fitness (ln) (30 °C),self-splicing fitness (ln) (37 °C)
CAAUAGCAAUAUUACGGAUC,-3.15 ± 0.37,–
CAAUAGCAAUAUUACGGGCA,-2.46 ± 0.28,-2.89 ± 0.25
CAAUAGCAAUAUUACGGUGC,-3.75 ± 0.23,-3.67 ± 0.29
CAAUAGCAAUAUUACGUAAA,-2.68 ± 0.28,-2.27 ± 0.4
CAAUAGCAAUAUUACGUACG,-0.451 ± 0.063,-0.069 ± 0.078
CAAUAGCAAUAUUACGUCAC,-2.04 ± 0.2,-2.71 ± 0.43
CAAUAGCAAUAUUACGUGAC,-3.84 ± 0.25,-2.21 ± 0.22
CAAUAGCAAUAUUACGUGCA,-2.72 ± 0.19,-1.27 ± 0.15
CAAUAGCAAUAUUACGUGUC,-3.97 ± 0.18,-3.28 ± 0.21
CAAUAGCAAUAUUACGUUAA,-2.95 ± 0.18,-2.8 ± 0.23
CACAAGCAAUAUUACGAGAC,-3.08 ± 0.17,-2.51 ± 0.17
CACAAGCAAUAUUACGAGAG,-3.2 ± 0.12,-1.32 ± 0.085
CACAAGCAAUAUUACGAUAA,-4.26 ± 0.33,-2.22 ± 0.16
CACAAGCAAUAUUACGAUCA,-2.43 ± 0.11,-1.55 ± 0.12
CACAAGCAAUAUUACGCAAA,-3.29 ± 0.23,-2.46 ± 0.28
CACAAGCAAUAUUACGCACG,-0.378 ± 0.067,-0.684 ± 0.075
CACAAGCAAUAUUACGCGGC,-3.25 ± 0.19,-2.98 ± 0.23
CACAAGCAAUAUUACGCGGG,-3 ± 0.14,-0.984 ± 0.12
CACAAGCAAUAUUACGCUUG,-3.66 ± 0.18,-1.77 ± 0.15
CACAAGCAAUAUUACGGAAU,-4.1 ± 0.21,-2.28 ± 0.16
CACAAGCAAUAUUACGGCCC,-2.49 ± 0.22,-1.82 ± 0.31
CACAAGCAAUAUUACGGCUA,-2.02 ± 0.12,-1.26 ± 0.11
CACAAGCAAUAUUACGGGAG,-1.55 ± 0.065,-1.46 ± 0.076
CACAAGCAAUAUUACGGUCG,0.139 ± 0.054,0.219 ± 0.064
